Reference: patent publication US6693076

Assays:
[1] = biological target: 125I-[Threonine59]IGF-I binding sites in adult rat brain sections (level of the cerebellum and brain stem) (rat); assay: displacement of 0.01 nM 125I-[Thr59]IGF-I from rat brain sections; competitor at .25 mM
[2] = biological target: 125I-[Threonine59]IGF-I binding sites in adult rat brain sections (level of the cerebellum and brain stem) (rat); assay: displacement of 0.01 nM 125I-[Thr59]IGF-I from rat brain sections; competitor at .025 mM
[3] = biological target: 125I-[Threonine59]IGF-I binding sites in adult rat brain sections (level of the cerebellum and brain stem) (rat); assay: displacement of 0.01 nM 125I-[Thr59]IGF-I from rat brain sections; competitor at 1 mM
[4] = biological target: 125I-[Threonine59]IGF-I binding sites in adult rat brain sections (level of the cerebellum and brain stem) (rat); assay: displacement of 0.01 nM 125I-[Thr59]IGF-I from rat brain sections; competitor at .10 mM

Row | percent max. bound [1] | percent max. bound [2] | percent max. bound [3] | percent max. bound [4] | Binder
1 | 167% | 132% |  |  | ALLETYCATPAKSE [IGF-II(54-67)]
2 |  |  | 76% | 82% | SRVSRRSR [IGF-II(33-40)]
